From PMC2871011

Target: low-molecular-weight fibrinogen fraction I-9 isolated from plasma (human) (UniProt P02671)
Assay: co-purification

fold less latent TGF-β than in fraction I-2: 8 fold
Substance: latent TGF-β1 (TGF-β1 with its latency-associated protein) (from UniProt P01137 30-278) (complex)
